This passage reports Kd results from PMC4046795.

The data set addresses recombinant human EGFR/ErbB1 Fc chimera (rhEGFR) (human, UniProt P00533 25-645). Put plainly: SPR.

B1: E07 anti-EGFR aptamer (structured_RNA)
RNA: GGCGCUCCGACCUUAGUCUCUGUGCCGCUAUAAUGCACGGAUUUAAUCGCCGUAGAAAAGCAUGUCAAAGCCGGAACCGUGUAGCACAGCAGAGAAUUAAAUGCCCGCCAUGACCAG
modifications: 2'-fluoropyrimidine
In the case of B1, the Kd was determined as 112 nM.
